By pKd is commonly meant −log10 of the Kd, conventionally taken in molar units. By koff is commonly meant a measure of how fast the partners let go of each other. A high value points to a short-lived complex. One may read the kon as the rate constant with which the complex forms.

pKd: −log10 of the molar value.

Here are results for 3 substances from article PMC11537708.

Experiment [1] has as its target human full-length CD45 extracellular domain (ECD) isoform RABC (human) (UniProt P08575). Briefly: cryo-EM structure; fully glycosylated human CD45 ECD bound to E3/49K, purified by size exclusion chromatography; 0.01% FOM; 3.8-Å nominal resolution map. (SEC sorts molecules by how far they enter the pores of the column.)
UniProt P08575, sequence (P08575 26-577): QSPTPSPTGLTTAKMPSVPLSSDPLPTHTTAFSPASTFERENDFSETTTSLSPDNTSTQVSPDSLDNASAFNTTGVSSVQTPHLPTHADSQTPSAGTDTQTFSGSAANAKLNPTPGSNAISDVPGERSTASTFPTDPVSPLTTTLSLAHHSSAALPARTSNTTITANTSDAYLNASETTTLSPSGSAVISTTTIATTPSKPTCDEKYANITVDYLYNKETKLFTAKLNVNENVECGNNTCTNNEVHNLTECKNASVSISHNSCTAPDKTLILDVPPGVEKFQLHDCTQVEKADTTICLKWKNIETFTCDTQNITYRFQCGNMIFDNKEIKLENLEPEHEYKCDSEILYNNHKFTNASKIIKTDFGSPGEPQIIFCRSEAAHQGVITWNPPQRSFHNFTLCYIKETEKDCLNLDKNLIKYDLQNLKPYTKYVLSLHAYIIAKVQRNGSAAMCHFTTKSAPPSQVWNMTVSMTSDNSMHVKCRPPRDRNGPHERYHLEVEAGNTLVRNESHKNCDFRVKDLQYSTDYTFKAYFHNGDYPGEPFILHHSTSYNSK
Experiment [2] shares this target. Briefly: SPR; GE Biacore T100; about 200 RU of human CD45 ECD, E3/49K immobilised on an SA-chip, reference channel with an unrelated protein; HBS-P+; twofold serial dilutions, 30 s association, 30 ul/min, 25 °C. A general note: SPR reads the build-up and loss of mass on a sensor chip optically.

In experiment [1], “adenoviral D19a strain E3/49K ECD (domain or fragment)” came in with a stoichiometry N (CD45 per E3/49K) of 2. In experiment [2], this substance had a pKd of 9.52, a koff of 0.000598 s⁻¹ and an on-rate constant (kon) of 2.08e+06 M⁻¹ s⁻¹.

Consider E3/49K R2 domain (domain or fragment), for which the pKd in experiment [2] was 6.84.

Regarding E3/49K R1 domain (domain or fragment), the pKd in experiment [2] was 7.13.
